Assay results published in PMC6377654, “Screening and identification of a non-peptide antagonist for the peptide hormone receptor in Arabidopsis” (Communications Biology, 2019).
Blank lines part the entries; values can stand above or below the compound they belong to.

Legend:
BAM1 = biological target: T1, BAM1 (Arabidopsis thaliana, UniProt O49545); experiment: competition binding of fluorescent Alexa488-CLE9 on bead-immobilized BAM1 (confocal imaging); confirmed by competitive photoaffinity labeling with […]ASA-CLE9 and […]ASA-[Ara3]CLV3
T1 construct: BAM1-HT: Met1 to Ile700 region (signal peptide, 22 LRRs, transmembrane domain), cytoplasmic kinase domain replaced with HaloTag; expressed in tobacco BY-2 cells, immobilized on HaloLink Sepharose beads
T1 sequence (O49545 1-700): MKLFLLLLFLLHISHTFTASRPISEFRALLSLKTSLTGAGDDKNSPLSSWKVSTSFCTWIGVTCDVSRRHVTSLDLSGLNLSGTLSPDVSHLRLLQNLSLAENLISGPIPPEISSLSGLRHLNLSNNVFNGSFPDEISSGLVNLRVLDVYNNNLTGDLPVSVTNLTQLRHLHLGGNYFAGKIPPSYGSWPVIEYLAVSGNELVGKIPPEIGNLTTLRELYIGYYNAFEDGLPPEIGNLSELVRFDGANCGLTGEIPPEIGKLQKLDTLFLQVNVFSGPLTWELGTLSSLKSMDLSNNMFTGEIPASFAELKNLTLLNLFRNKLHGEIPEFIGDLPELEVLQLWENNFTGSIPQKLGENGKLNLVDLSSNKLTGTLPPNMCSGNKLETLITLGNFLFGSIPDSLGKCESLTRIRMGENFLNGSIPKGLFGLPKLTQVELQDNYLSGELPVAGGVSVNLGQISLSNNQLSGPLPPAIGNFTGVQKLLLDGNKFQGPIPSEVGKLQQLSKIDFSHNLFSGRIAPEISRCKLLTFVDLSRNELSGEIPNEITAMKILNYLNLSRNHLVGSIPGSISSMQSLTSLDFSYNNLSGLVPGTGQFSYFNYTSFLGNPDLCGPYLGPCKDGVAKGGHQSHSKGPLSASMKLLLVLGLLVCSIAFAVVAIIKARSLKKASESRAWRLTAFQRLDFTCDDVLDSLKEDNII

[1] = biological target: BAM2 (Arabidopsis thaliana) (UniProt Q9M2Z1); details: cited from earlier work
BAM2 (Arabidopsis thaliana), sequence (Q9M2Z1 23-636): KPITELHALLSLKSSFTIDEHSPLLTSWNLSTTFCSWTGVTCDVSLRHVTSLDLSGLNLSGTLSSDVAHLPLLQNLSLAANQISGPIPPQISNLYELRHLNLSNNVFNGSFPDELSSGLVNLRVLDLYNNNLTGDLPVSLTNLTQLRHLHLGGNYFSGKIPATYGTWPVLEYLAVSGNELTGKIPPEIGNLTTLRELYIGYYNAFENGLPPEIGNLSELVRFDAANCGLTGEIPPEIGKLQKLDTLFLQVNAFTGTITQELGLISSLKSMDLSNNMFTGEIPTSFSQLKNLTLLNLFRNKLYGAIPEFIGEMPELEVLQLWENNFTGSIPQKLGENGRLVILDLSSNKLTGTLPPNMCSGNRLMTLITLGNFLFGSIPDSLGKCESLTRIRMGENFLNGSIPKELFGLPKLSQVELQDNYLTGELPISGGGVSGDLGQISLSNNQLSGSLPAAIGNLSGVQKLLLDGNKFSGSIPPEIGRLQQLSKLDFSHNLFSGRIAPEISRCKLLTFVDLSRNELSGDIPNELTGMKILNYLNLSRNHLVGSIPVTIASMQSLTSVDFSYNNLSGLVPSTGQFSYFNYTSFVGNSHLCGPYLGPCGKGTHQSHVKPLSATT

[2] = biological target: BAM1 (Arabidopsis thaliana) (UniProt O49545); details: cited from earlier work
[3] = biological target: CLV1 (Arabidopsis thaliana) (UniProt Q9SYQ8); details: cited from earlier work
CLV1 (Arabidopsis thaliana), sequence (Q9SYQ8 25-638): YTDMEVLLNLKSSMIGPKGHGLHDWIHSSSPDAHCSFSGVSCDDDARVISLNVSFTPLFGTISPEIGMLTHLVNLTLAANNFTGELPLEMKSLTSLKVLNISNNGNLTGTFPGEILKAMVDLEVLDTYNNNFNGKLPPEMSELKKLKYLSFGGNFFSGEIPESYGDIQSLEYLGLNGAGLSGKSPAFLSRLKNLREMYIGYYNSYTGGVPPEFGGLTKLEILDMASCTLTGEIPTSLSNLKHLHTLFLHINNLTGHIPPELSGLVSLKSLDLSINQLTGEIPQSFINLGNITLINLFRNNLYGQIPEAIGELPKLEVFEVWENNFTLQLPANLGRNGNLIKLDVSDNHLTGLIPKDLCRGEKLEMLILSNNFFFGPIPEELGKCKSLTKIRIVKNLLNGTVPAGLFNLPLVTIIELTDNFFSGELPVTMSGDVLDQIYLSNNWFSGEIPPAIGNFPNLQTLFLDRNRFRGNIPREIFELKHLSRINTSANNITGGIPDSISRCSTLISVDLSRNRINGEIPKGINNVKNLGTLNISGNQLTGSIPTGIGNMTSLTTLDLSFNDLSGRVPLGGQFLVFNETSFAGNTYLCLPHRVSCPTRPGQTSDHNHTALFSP

[4] = biological target: BAM1-HaloTag (recombinant BAM1 in which the cytoplasmic kinase domain was replaced with HaloTag) (Arabidopsis) (UniProt O49545); experiment: cross-linking; photoaffinity labeling as a3, in the presence of 10 μM NPD12704
[5] = biological target: BAM1-HaloTag (recombinant BAM1 in which the cytoplasmic kinase domain was replaced with HaloTag) (Arabidopsis) (UniProt O49545); experiment: cross-linking; photoaffinity labeling as a3, in the presence of 100 μM NPD12704

Compound: CLE9 (from UniProt Q9FZE4)
Kd [1]: 11.9 nM
Kd [2]: 1.8 nM

Compound: [Ara3]CLV3 (from UniProt Q9XF04)
Kd [3]: 1 nM

Next, values leading:

IC50 (BAM1): 26000 nM
Compound: CNC(=S)Nc1cc(OC)c(OC)cc1Cc1nccc2cc(OC)c(OC)cc12 [NPD12704]

cross-linked band, percent of the control, with 10 μM NPD12704 (% of the control) [4]: 62
cross-linked band, percent of the control, with 100 μM NPD12704 (% of the control) [5]: 33
Compound: [^125I]ASA-CLE9 (peptide)

cross-linked band, percent of the control, with 10 μM NPD12704 (% of the control) [4]: 46
Compound: [^125I]ASA-[Ara3]CLV3 glycopeptide
